Measurements: US20130196933A1

What was measured:
[1] = target: T7-FoxM1B WT protein (CMV T7-FoxM1B; CMV WT FoxM1B 1-748) (human) (UniProt Q08050); experiment: cell-based or functional assay
Cdk1 protein (human) = Cdk1 protein (human) (UniProt P06493); experiment: cell-based or functional assay
Chain of Cdk1 protein (human) (P06493 whole entry): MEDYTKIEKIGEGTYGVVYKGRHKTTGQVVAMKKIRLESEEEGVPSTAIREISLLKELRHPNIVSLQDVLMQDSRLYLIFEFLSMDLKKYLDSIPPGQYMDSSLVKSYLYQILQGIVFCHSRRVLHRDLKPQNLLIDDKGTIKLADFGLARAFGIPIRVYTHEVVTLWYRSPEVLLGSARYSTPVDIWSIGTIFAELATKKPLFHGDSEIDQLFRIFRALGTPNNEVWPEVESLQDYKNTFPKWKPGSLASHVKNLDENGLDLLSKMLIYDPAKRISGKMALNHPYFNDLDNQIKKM

Row | Substance | FoxM1B transcriptional activity (6×FoxM1B TATA-luciferase reporter, U2OS cells) (% stimulation) [1] | FoxM1B transcriptional activity (6×FoxM1B TATA-luciferase reporter, U2OS cells) (Cdk1 protein (human)) [% reduction]
1 | CBP protein (CREB Binding Protein, CMV-CBP) (enzyme) | 50 | 
2 | T7-FoxM1B L641A mutant protein (from UniProt Q08050 1-763) |  | 80
